According to patent publication CN116496388A (BRAVOVAX CO LTD; SHANGHAI BOWO BIOTECHNOLOGY CO LTD, dated 2023):

B1: AdC68-Hexon单克隆抗体 (hybridoma-derived, purified from mouse ascites) (antibody, V domains shown)
VH: EVQLVETGGGLVQPKGSLKLSCAVSGLPFNTKAMDWVRQAPGEGLEWVARIRTKSNNYATYYADSVKDRFTISRDDAQSMLYLQMTNLKTEDTAMYYCVRDEASWGHGTLVTVSA
VL: DIVMTQIPLSLPVSLGDQASISCRSSQSLVHSDGNTYLHWYLQKPGQSPKLLIYKVSNRFSGVPDRFSGSGSGTDFTLKISRVEAEDLGVYFCSQSTHFPWTFGGGTKLEIK
notes: Mouse IgG1 (all positive hybridomas were IgG1); also called 抗AdC68-Hexon单克隆抗体; 亲本鼠源抗体
B2: 重组抗AdC68-Hexon小鼠单克隆抗体 (antibody, V domains shown)
VH: B1 VH
VL: DIVMTQIPLSLPVSLGDQASISCRSSQSLVHSDGNTYLHWYLQKPGQSPKLLIYKVSNRFSGVPDRFSGSGSGTDFTLKISRVEAEDLGVYFCSQSTHFPWTFGGGTKLEIKR
notes: domain: 小鼠IgGκ轻链恒定区; Expressed in HEK293, assembled as IgG1k, Protein A purified; also called 重组单克隆抗体; 重组抗AdC68-Hexon鼠单克隆抗体; not shown: mouse IgG1 heavy chain constant region (IgG1CH, GenBank No. NC_000078.7, a genomic entry)

Tests used:
野生型人5型腺病毒的Hexon蛋白 [1] = molecular target: T1, 野生型人5型腺病毒的Hexon蛋白 (人5型腺病毒 (human adenovirus type 5), UniProt P04133 2-952); assay: Western blot, reduced virus lysate
T1 construct: also called 野生型人腺病毒5型

野生型人5型腺病毒的Hexon蛋白 [2] = molecular target: T1, 野生型人5型腺病毒的Hexon蛋白; assay: cell immunostaining of virus-infected 293A cells

T1 sequence (P04133 2-952): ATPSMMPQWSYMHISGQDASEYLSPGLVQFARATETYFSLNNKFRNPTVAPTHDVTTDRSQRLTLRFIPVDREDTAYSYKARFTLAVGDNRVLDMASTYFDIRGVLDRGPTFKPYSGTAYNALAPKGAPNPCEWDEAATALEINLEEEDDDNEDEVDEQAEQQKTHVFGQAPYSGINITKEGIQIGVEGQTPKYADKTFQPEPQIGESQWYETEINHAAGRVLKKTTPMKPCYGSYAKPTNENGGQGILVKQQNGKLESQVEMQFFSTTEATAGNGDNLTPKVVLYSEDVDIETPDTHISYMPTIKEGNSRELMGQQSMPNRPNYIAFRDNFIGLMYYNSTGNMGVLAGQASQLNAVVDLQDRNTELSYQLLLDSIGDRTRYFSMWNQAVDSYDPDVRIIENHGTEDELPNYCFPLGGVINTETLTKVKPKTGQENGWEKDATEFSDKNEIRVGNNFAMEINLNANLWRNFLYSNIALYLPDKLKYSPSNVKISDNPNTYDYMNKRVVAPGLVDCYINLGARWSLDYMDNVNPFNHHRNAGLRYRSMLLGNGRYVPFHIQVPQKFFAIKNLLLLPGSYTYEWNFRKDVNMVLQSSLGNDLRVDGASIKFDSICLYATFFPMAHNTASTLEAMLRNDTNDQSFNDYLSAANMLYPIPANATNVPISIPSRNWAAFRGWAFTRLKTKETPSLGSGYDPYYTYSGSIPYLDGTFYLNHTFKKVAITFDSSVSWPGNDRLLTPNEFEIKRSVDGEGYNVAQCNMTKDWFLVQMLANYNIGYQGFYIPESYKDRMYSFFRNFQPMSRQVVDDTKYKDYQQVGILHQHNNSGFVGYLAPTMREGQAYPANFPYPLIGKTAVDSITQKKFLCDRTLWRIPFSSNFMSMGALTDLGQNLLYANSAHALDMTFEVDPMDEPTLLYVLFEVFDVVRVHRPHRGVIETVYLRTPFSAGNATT

| Binder | binding result (野生型人5型腺病毒的Hexon蛋白 [1]) | binding result (野生型人5型腺病毒的Hexon蛋白 [2]) |
| --- | --- | --- |
| B1 | no binding (tested: antibody diluted 1:10000) |  |
| B2 |  | no binding |
